We go through 1 molecule from patent publication US6653533 (PURDUE RESEARCH FOUNDATION, dated 1997).

This assay concerns the target T1, Pti6 (Solanum lycopersicum (Tomato) …, UniProt O04682 1-248, limits assumed).
T1 construct: Tested as a yeast two-hybrid prey expressed from vector pJG4-5; also called prey of Pti6 (in pJG4-5)
The assay is described as follows: yeast two-hybrid (LEU2 and lacZ reporters), Bicoid bait in pEG202, prey in pJG4-5. As to the method:
Figure 2: FIG. 2 sets forth results of the Experiment described in Example 1 herein. Briefly, EGY48 yeast cells containing a prey of Pti4, Pti5 or Pti6 (in pJG4–5), and a bait of Pto, pto or Bicoid (in pEG202) were grown on galactose Ura⁻His⁻Trp⁻X-Gal medium. The plates were incubated at 30° C. for three days and photographed. Four independent, representative colonies are shown for each bait/prey combination.
Yeast strains carrying the Pto bait and a prey of Pti4, Pti5 or Pti6 grew in the absence of leucine, indicative of the LEU2 reporter gene activation. When grown on X-Gal plates, these yeast cells were blue as a result of the lacZ reporter gene activation. As determined by the intensity of blue color, the strength of interaction of Pto with these three preys is in the order of Pti6>Pti4>Pti5.

T1 sequence (O04682 whole entry): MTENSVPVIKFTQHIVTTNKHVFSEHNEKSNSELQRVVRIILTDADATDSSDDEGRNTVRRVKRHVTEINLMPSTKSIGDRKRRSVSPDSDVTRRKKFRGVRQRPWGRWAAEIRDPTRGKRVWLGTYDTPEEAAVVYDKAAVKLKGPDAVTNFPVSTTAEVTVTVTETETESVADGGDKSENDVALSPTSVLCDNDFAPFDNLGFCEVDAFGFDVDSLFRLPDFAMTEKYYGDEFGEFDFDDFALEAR

B1: Bicoid (other, UniProt P09081 2-160, looked up)
chain: AQPPPDQNFYHHPLPHTHTHPHPHSHPHPHSHPHPHHQHPQLQLPPQFRNPFDLLFDERTGAINYNYIRPYLPNQMPKPDVFPSEELPDSLVMRRPRRTRTTFTSSQIAELEQHFLQGRYLTAPRLADLSAKLALGTAQVKIWFKNRRRRHKIQSDQHK
notes: Control bait expressed from vector pEG202; also called arbitrary bait Bicoid (in pEG202)
With B1, the binding result is reported as “no binding”.
